The results in this text go back to patent US6867180B1, “Use of calreticulin and calreticulin fragments to inhibit endothelial cell growth and angiogenesis, and suppress tumor growth” (The United States of America as represented by the …, priority 1998, dated 2005).

Assay [1] deals with Fetal bovine heart endothelial cells.
Protocol: Fetal bovine heart endothelial cells (American Type Culture Collection, ATCC, Manassas, Va.) were grown through passage 12 in DMEM culture medium (BioWhittaker, Walkersville, Md.) containing 10% heat inactivated fetal bovine serum (BioWhittaker), 100 ng/ml bFGF (R&D Systems, Minneapolis, Minn.), and 5 μg/ml gentamicin (Sigma). For proliferation assays, cells were trypsinized (Trypsin/EDTA, Gibco BRL), washed, suspended in culture medium (DMEM containing 10% heat inactivated fetal bovine serum and 5 μg/ml gentamicin), plated (800 cells/well in 0.2 ml culture medium) in triplicate onto 96 well plates, and incubated for 5 days.
For assay [2], the system named is bFGF-induced neovascularization. The assay is described as follows: Murine Matrigel assay of angiogenesis in vivo. Also on record: species or system BALB/c nude mice. The note with it: Exp. 4; concentration not given; bFGF 150 ng/ml. On the procedure: The murine Matrigel assay (Passaniti et al., Lab. Invest. 67:519-528, 1992) was employed to evaluate the effects of calreticulin and calreticulin fragments on angiogenesis in vivo. The Matrigel assay was performed as described by Angiolillo et al. (J. Exp. Med. 182:155-162, 1995). Matrigel, a crude extract of the Englebreth-Holm-Swarm tumor, was obtained from Collaborative Biomedical Products, Becton Dickinson Labware, Bedford, Mass. An aliquot (0.5 ml) of Matrigel alone or with desired additives was injected subcutaneously (s.c.) into the mid abdominal region of female BALB/c nude mice, 6-8 weeks old. Five mice were injected with each mixture. After 5-7 days, the animals were sacrificed, Matrigel plugs were removed, fixed in 10% neutral buffered formalin solution (Sigma), and embedded in paraffin. Tissues were sectioned (5μ thickness), and slides stained with Masson's trichrome. Quantitative analysis of angiogenesis in Matrigel plugs utilized a computerized semi-automated digital analyzer (Optomax, 40-10 System, Hollis, N.H.). The instrument was adjusted to evaluate a circular area measuring […] of Matrigel, and within this area, to measure the area occupied by cells. For each plug, 12-15 distinct fields were evaluated. The fields were randomly selected from each plug, and the operator was blind to the experimental design. The average area occupied by cells/1.26×10^5 […] Matrigel field was calculated. Results are expressed as the mean area occupied by cells/Matrigel field.
Matrigel plugs were fixed in 10% neutral buffered formalin solution (Sigma), embedded in paraffin, sectioned at 4 μm, and stained with Masson's trichrome by standard methods.

Assay [3] has as its system human Burkitt lymphoma cells (CA46 cell line). The assay is described as follows: Prevention of human Burkitt lymphoma growth in athymic mice. Type of assay: in vivo, BALB/c athymic mice. The note with it: 4×10^6 CA46 cells; 75 μg/day, 6 days/week, 42 days. The source says:
FIGS. 6A, 6B, 6C and 6D are graphs showing the inhibition of tumor growth by vasostatin (Seq. I.D. No. 4) and calreticulin (Seq. I.D. No. 3). Burkitt lymphoma cells (CA46 cell line, 1×10^7 cells) were inoculated subcutaneously (s.c.) into BALB/c athymic mice, 6 weeks of age. Beginning on the day of cell inoculation and continuing thereafter daily, 6 days/week, mice were inoculated s.c. with either control buffer (open symbols) or test protein (closed symbols). The results reflect the % mice with tumor as a function of time. A. 12 mice were inoculated with control purified GST protein (Seq. I.D. No. 2; 20 μg/day×14 days), and 13 mice were inoculated with purified GST-calreticulin ([…]; 60 μg/day×14 days). […]
BALB/c nu/nu female mice, 6 weeks of age (National Cancer Institute, Frederick, Md.) maintained in pathogen-limited conditions, received 400 rad (1 rad=0.01 Gy) total body irradiation and 24 hours later were injected s.c. in the right abdominal quadrant with 10^7 exponentially growing human Burkitt lymphoma cells (CA46 cell line; Sgadari et al., Proc. Natl. Acad. Sci. U.S.A. 93:13791-13796, 1996) in 0.2 ml PBS. […] A subcutaneous mass appearing at or proximal to the site of cell inoculation was considered a tumor when it measured at least 0.16 cm^2 in surface area and increased in size by at least 0.1 cm^2 over the following week. […]

The test system of assay [4] is peptides KLGFFKR, KAFFKR and KVFFKR coupled to CNBr-activated Sepharose. The experiment in a line: Affinity column binding to integrin / steroid receptor motif peptides. The note with it: elution with 20 mM EDTA. The source says:
FIG. 18 is a Western blot analysis of fractions obtained through affinity purification over a column containing KXaa1FFXaa2R (Seq. I.D. No. 11) and KXaa1GFFKR (Seq. I.D. No. 10). Purified supernatants from the VDS-0 cell line containing full length calreticulin and N-terminal fragments of calreticulin were affinity purified over a mixture of peptides KLGFFKR (Seq. I.D. No. 13), KAFFKR (Seq. I.D. No. 33) and KVFFKR (Seq. I.D. No. 32) coupled to CNBr-activated Sepharose. Starting material (lane 1), unbound material (lanes 2, 3) and bound material (lanes 4, 5) were separated by SDS-PAGE, transferred to nitrocellulose, and subsequently stained with a rabbit antiserum against human calreticulin.
To this end, purified preparations of the VDS-O cell line containing full length calreticulin (Seq. I.D. No. 3) as well as N-terminal calreticulin fragments were prepared and tested to determine how these components were retained over an affinity column. To prepare the affinity column, three peptides were synthesized ([…], Seq. I.D. 13; KAFFKR, Seq. I.D. No. 33; and KVFFKR, Seq. I.D. No. 32), purified, and coupled to CNBr-activated Sepharose 4B (Pharmacia). First, the ability of calreticulin, purified from the culture supernatant of the lymphoblastoid cell line VDS-O, to selectively bind to the column and be eluted by a buffer solution containing 20 mM EDTA and 100 mM NaCl, was verified. […]

In assay [5] the test system is human Burkitt lymphoma cell line CA46. The assay is described as follows: Combination of vasostatin and IL-12 on human Burkitt lymphoma in nude mice. Type of assay: in vivo, BALB/c nude mice. The note with it: both experiments; MBP-vasostatin 100 μg/day, mIL-12 100-200 ng/day s.c. On the procedure:
Athymic BALB/c nude mice received 400 rad total body irradiation and 24 hours later were inoculated (4×10^6 cell/mouse) with the human Burkitt lymphoma cell line CA46. A and B. 5 days after cell inoculation the established tumors were treated with daily s.c. inoculations (6 days/week) of either formulation buffer alone (closed circles), MBP-vasostatin alone (Seq. I.D. No. 4; 100 μg/day; open squares), mIL-12 alone (200 ng/day for 8 days followed by 100 ng/day; open circles), or the combination of MBP-vasostatin (Seq. I.D. No. 4) and mIL-12 (same dose used as single agents; open triangles). All mice were sacrificed after 15 days of treatment. C and D. 1 day after cell inoculation, s.c. treatment with MBP-vasostatin (Seq. I.D. No. 4; 100 μg/day; 6 days/week) or formulation buffer was started; s.c. treatment with IL-12 (100 ng/mouse; 6 days/week) was started 2 days later in mice that had received buffer alone or MBP-vasostatin (Seq. I.D. No. 4). Therefore, four groups of mice were tested: Mice receiving buffer alone (closed circles); MBP-vasostatin alone (open squares); IL-12 alone (open circles); and MBP-vasostatin plus IL-12 (open triangles). The mice received 7 days treatment with MBP-vasostatin (Seq. I.D. No. 4) and 5 days treatment with IL-12, and were observed untreated for 14 days at which time all mice were sacrificed. […]

B1: MBP-120-180 calreticulin: recombinant 61 amino acid calreticulin fragment, amino acids 120-180 (Seq. I.D. No. 5), fused to MBP (protein)
chain: CGPGTKKVHVIFNYKGKNVLINKDIRCKDDEFTHLYTLIVRPDNTYEVKIDNSQVESGSLE
modifications: left off: large carriers
On to B1, for which, in assay [1] (0.5 μg/ml, bFGF-induced), the “inhibition of fetal bovine heart endothelial cell proliferation” value is reported as 65%. Further, the “endothelial cell growth inhibitory activity in vitro, side-by-side comparison on a molar basis” value in assay [1] (0.4-32 nM, bFGF 15 ng/ml, 5 days) is on record as “similar”. Besides, in assay [2], the “Inhibition (%)” value was determined as 70% and the “Mean Surface Area Occupied by Cells” value is reported as 2,458 mm^2/1.26 × 10^5 mm^2. Moreover, the “rate of Burkitt tumor growth compared to controls” value in assay [3] is reported as “significantly reduced”. Further, in assay [4], the “binding to peptide affinity column” value is reported as “failed to bind”.

B2: mIL-12: murine IL-12 (Interleukin 12) (protein, UniProt P43431 23-215; P43432 23-335, looked up)
Interleukin-12 subunit alpha: RVIPVSGPARCLSQSRNLLKTTDDMVKTAREKLKHYSCTAEDIDHEDITRDQTSTLKTCLPLELHKNESCLATRETSSTTRGSCLPPQKTSLMMTLCLGSIYEDLKMYQTEFQAINAALQNHNHQQIILDKGMLVAIDELMQSLNHNGETLRQKPPVGEADPYRVKMKLCILLHAFSTRVVTINRVMGYLSSA
Interleukin-12 subunit beta: MWELEKDVYVVEVDWTPDAPGETVNLTCDTPEEDDITWTSDQRHGVIGSGKTLTITVKEFLDAGQYTCHKGGETLSHSHLLLHKKENGIWSTEILKNFKNKTFLKCEAPNYSGRFTCSWLVQRNMDLKFNIKSSSSSPDSRAVTCGMASLSAEKVTLDQRDYEKYSVSCQEDVTCPTAEETLPIELALEARQQNKYENYSTSFFIRDIIKPDPPKNLQMKPLKNSQVEVSWEYPDSWSTPHSYFSLKFFVRIQRKKEKMKETEEGCNQKGAFLVEKTSTEVQCKGGNVCVQAQDRYYNSSCSKWACVPCRVRS
Consider B2, for which the “rate of tumor growth and mean weight of tumors compared with formulation buffer” value in assay [5] was “reduced”.
